Experimental findings from patent US8314210B2, “Compositions and methods for the generation of MHC class II compounds by peptide exchange” (priority 2002, dated 2012) are described below.

Peptide text beside a SMILES is read from it. * marks the point of attachment. Dnp = O=[N+]([O-])c1ccc(*)c([N+](=O)[O-])c1; Ahx = NCCCCCC(=O)O

Holding throughout (assay type): binding
One assay deals with T1, HLA-DR4 (DRA, DRB1*0401) (Homo sapiens, UniProt P01903+P01911, A100K/A169T/F76Y/I96L/K127E/L162R/M171V/N62H/P40V/Q125Y/R42H/S133A/S149N/S66Y/V115G/V209L/W38E).
T1 construct: were attached to the 3′ end of the DRα and DRβ ectodomains; CLIP peptide […]; made in house
The assay can be described thus: biochemical. To be noted: Table 2, DRB1*0401, read-out: (μM) [head prints unit only.

For the next assay, the target named is T2, DRB1*0401 (Homo sapiens, UniProt P01903+P01911, A100K/A169T/F76Y/I96L/K127E/L162R/M171V/N62H/P40V/Q125Y/R42H/S133A/S149N/S66Y/V115G/V209L/W38E).
T2 construct: were attached to the 3′ end of the DRα and DRβ ectodomains; CLIP peptide […]; made in house
Conditions: 3.3 μM *DR/CLIP, 50 μM DNP-labeled peptide, pH 5.2, overnight 30° C.

The next assay addresses T3, DR4 (DRA, DRB1*0401) (Homo sapiens, UniProt P01903+P01911, A100K/A169T/F76Y/I96L/K127E/L162R/M171V/N62H/P40V/Q125Y/R42H/S133A/S149N/S66Y/V115G/V209L/W38E).
T3 construct: were attached to the 3′ end of the DRα and DRβ ectodomains; CLIP peptide […]; made in house
The assay can be described thus: Competition assay of HCV peptides, biotinylated HA (306-318) on thrombin-cleaved DR4/CLIP. To be noted: competitor 30 nM to 10 μM vs 30 nM labeled HA peptide.

Another assay has as its target T4, DR4 (Homo sapiens, UniProt P01903+P01911, A100K/A169T/F76Y/I96L/K127E/L162R/M171V/N62H/P40V/Q125Y/R42H/S133A/S149N/S66Y/V115G/V209L/W38E).
T4 construct: CLIP peptide […]; made in house
The experiment in a line: Kinetics of CLIP dissociation and peptide association. Conditions: DR4, pH 5.2.

Take `CC[C@H](C)[C@H](NC(=O)[C@H](CC(N)=O)NC(=O)[C@H](CCCCN)NC(=O)[C@H](Cc1ccccc1)NC(=O)[C@H](Cc1ccccc1)NC(=O)[C@H](Cc1c[nH]cn1)NC(=O)[C@@H](NC(=O)[C@@H](NC(=O)CCCCCNc1ccc([N+](=O)[O-])cc1[N+](=O)[O-])C(C)C)C(C)C)C(=O)N[C@H](C(=O)N[C@H](C(=O)N1CCC[C@H]1C(=O)N[C@@H](CCCNC(=N)N)C(=O)N[C@H](C(=O)N1CCC[C@H]1C(=O)N1CCC[C@H]1C(=O)O)[C@@H](C)O)[C@@H](C)O)C(C)C` [MBP(88-102)] ({Dnp-Ahx}-VVHFFKNIVTPRTPP-OH): at HLA-DR4 (DRA, DRB1*0401), the IC50 came to 0.3 µM. For the compound `CC[C@H](C)[C@H](NC(=O)[C@H](CO)NC(=O)[C@@H](NC(=O)[C@@H]1CCCN1C(=O)[C@H](CO)NC(=O)[C@H](Cc1ccc(O)cc1)NC(=O)[C@H](CCSC)NC(=O)[C@H](CCCNC(=N)N)NC(=O)[C@@H](NC(=O)[C@@H](NC(=O)[C@H](CCCCN)NC(=O)[C@H](CC(N)=O)NC(=O)[C@H](CC(C)C)NC(=O)CCCCCNc1ccc([N+](=O)[O-])cc1[N+](=O)[O-])[C@@H](C)CC)C(C)C)C(C)C)C(=O)O` [p24 (138-150)/Val] ({Dnp-Ahx}-LNKIVRMYSPVSI-OH; C-terminus assumed), on DRB1*0401, the “Loading Efficiency (%)” value is given as 90%. On to “aa 1241-1260: HCV peptide aa 1241-1260 tested for DR4 binding, printed with SEQ ID NO:19 (GYKVLVLNPSVAATL; listed as Homo sapiens)”, for which the “binding to DR4” value with DR4 (DRA, DRB1*0401) is on record as “bound to DR4”. On the same count and under the same terms, then “aa 1581-1600: HCV peptide aa 1581-1600 tested for DR4 binding, printed with SEQ ID NO:20”, with “bound to DR4”; and “aa 1771-1790: HCV peptide aa 1771-1790 tested for DR4 binding, printed with SEQ ID NO:21 (SGIQYLAGLSTLPGNPAIASL; listed as Homo sapiens)”, with “bound to DR4”. Regarding `CC[C@H](C)[C@H](NC(=O)[C@H](CCC(N)=O)NC(=O)[C@H](CCC(=O)O)NC(=O)CCCCCNc1ccc([N+](=O)[O-])cc1[N+](=O)[O-])C(=O)NCC(=O)N[C@@H](Cc1c[nH]c2ccccc12)C(=O)N[C@@H](CCSC)C(=O)N[C@H](C(=O)N[C@@H](CC(N)=O)C(=O)N[C@@H](CC(N)=O)C(=O)N1CCC[C@H]1C(=O)N1CCC[C@H]1C(=O)N[C@H](C(=O)N1CCC[C@H]1C(=O)N[C@H](C(=O)NCC(=O)O)C(C)C)[C@@H](C)CC)[C@@H](C)O` [p24 (113-127)] ({Dnp-Ahx}-EQIGWMTNNPPIPVG-OH; C-terminus assumed), on DRB1*0401, the “Loading Efficiency (%)” value stood at 79%. On to “CGGGPVSKMRMATPLLMQA [Alexa-488 labeled CLIP peptide]”, for which, in the assay with DR4, the “time by which almost all of the bound CLIP peptide had dissociated” value is at most 30 min.
